Test results from patent publication US20220372147A1 (UNIVERSIT T STUTTGART, published 2022).

How the values were obtained:
[1] = biological target: T1, FAP on FAP-expressing HT1080-FAP cells (UniProt Q12884 1-760, limits assumed); experiment: flow cytometry on FAP-expressing HT1080-FAP cells, PE anti-human Fc
T1 construct: whole, on cells

[2] = biological target: T2, mouse CD3 on murine spleenocytes (mouse, UniProt P22646 22-189); experiment: flow cytometry on murine spleenocytes (mouse CD3), PE anti-human Fc
T2 construct: whole, on cells; also called murine CD3-expressing murine spleenocytes; moCD3
T2 sequence (P22646 22-189): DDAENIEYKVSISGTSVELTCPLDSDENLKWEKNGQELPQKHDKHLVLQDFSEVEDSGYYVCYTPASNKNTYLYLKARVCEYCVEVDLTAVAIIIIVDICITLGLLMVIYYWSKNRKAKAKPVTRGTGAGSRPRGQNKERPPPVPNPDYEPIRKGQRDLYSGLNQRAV

EC50 [1]: 2.9 nM
EC50 [2]: 7.3 nM
B1: bivalent and bispecific eIg molecule targeting FAP and mouse CD3, molecule I (bispecific antibody)
light 1: DIQMTQSPSSLSASVGDRVTITCRASKSVSTSAYSYMHWYQQKPGKAPKLLIYLASNLESGVPSRFSGSGSGTDFTLTISSLQPEDFATYYCQHSRELPYTFGQGTKLEIKRRTVAAPSVFIFPPSDEQLKSGTASVVCLLNNFYPREAKVQWKVDNALQSGNSQESVTEQDSKDSTYSLSSTLTLSKADYEKHKVYACEVTHQGLSSPVTKSFNRGEC
heavy 1: QVQLVQSGAEVKKPGASVKVSCKASGYTFTENIIHWVRQAPGQGLEWMGWFHPGSGSIKYNEKFKDRVTMTADTSTSTVYMELSSLRSEDTAVYYCARHGGTGRGAMDYWGQGTLVTVSSASTKGPSVFPLAPSSKSTSGGTAALGCLVKDYFPEPVTVSWNSGALTSGVHTFPAVLQSSGLYSLSSVVTVPSSSLGTQTYICNVNHKPSNTKVDKKVEPKSCGTDKTHTCPPCPAPPVAGPSVFLFPPKPKDTLMISRTPEVTCVVVDVSHEDPEVKFNWYVDGVEVHNAKTKPREEQYNSTYRVVSVLTVLHQDWLNGKEYKCKVSNKGLPSSIEKTISKAKGQPREPQVCTLPPSRDELTKNQVSLSCAVKGFYPSDIAVEWESNGQPENNYKTTPPVLDSDGSFFLVSKLTVDKSRWQQGNVFSCSVMHEALHNHYTQKSLSLSPGK
light 2: EVQLVESGGGLVQPGKSLKLSCEASGFTFSGYGMHWVRQAPGRGLESVAYITSSSINIKYADAVKGRFTVSRDNAKNLLFLQMNILKSEDTAMYYCARFDWDKNYWGQGTMVTVSSDFTPPTVKILQSSSDGGGHFPPTIQLLCLVSGYTPGTIQITWLEDGQVMDVDLSTASTTQEGELASTQSELTLSQKHWLSDRTYTCQVTYQGHTFEDSTKKCADSN
heavy 2: DIQMTQSPSSLPASLGDRVTINCQASQDISNYLNWYQQKPGKAPKLLIYYTNKLADGVPSRFSGSGSGRDSSFTISSLESEDIGSYYCQQYYNYPWTFGPGTKLEIKDFTPPTVKILQSSCDGGGHFPPTIQLLCLVSGYTPGTINITWLEDGQVMDVDLSTASTTQEGELASTQSELTLSQKHWLSDRTYTCQVTYQGHTFEDSTKKSADSNGTDKTHTCPPCPAPPVAGPSVFLFPPKPKDTLMISRTPEVTCVVVDVSHEDPEVKFNWYVDGVEVHNAKTKPREEQYNSTYRVVSVLTVLHQDWLNGKEYKCKVSNKGLPSSIEKTISKAKGQPREPQVYTLPPCRDELTKNQVSLWCLVKGFYPSDIAVEWESNGQPENNYKTTPPVLDSDGSFFLYSKLTVDKSRWQQGNVFSCSVMHEALHNHYTQKSLSLSPGK
notes: In molecule I the 2C11 VH sits on the 'light chain' and the VL on the Fc-bearing chain; also called eIg FAP × moCD3 I
